One data set has as its system AncSZ. The experiment in a line: phosphorylation enrichment, bacterial display (enrichment ratio); higher = better substrate or ligand; peptides without Tyr show the background.
For a further data set, the target named is EPHB1 (UniProt P54762). The data set is described as above.
For another data set, the target named is EPHB2 (UniProt P29323). Described as above.
A further data set has as its target FGFR1 (UniProt P11362). The description is as above.
The target of a further data set is FGFR3 (UniProt P22607). Described as above.
The subject of the next data set is Fer (mouse). The data set is described as above.
The target in a further data set is Fes (UniProt P07332). The data set is described as above.
Chain of Fes (P07332 whole entry, looked up): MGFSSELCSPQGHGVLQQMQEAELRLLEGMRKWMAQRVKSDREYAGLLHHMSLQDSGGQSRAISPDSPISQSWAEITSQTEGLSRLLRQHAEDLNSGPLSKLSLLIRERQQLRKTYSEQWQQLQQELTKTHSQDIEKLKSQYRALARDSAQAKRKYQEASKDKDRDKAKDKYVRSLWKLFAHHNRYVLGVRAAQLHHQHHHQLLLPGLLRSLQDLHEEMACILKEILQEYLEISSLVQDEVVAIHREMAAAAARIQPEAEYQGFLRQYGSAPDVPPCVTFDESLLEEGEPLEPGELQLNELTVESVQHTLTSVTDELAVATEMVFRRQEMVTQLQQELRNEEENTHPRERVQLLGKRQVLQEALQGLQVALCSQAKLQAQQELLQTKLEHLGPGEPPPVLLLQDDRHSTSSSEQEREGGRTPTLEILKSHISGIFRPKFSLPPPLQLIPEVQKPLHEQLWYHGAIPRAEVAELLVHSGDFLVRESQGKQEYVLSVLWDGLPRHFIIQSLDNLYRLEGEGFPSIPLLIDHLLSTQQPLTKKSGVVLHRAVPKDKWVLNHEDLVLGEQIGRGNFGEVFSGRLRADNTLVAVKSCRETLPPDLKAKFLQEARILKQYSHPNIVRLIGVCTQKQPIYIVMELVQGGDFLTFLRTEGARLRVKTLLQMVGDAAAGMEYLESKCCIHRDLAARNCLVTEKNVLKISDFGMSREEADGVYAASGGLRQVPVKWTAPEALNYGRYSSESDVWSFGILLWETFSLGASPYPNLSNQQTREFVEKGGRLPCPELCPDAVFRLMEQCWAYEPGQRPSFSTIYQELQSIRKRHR
A further data set deals with Fyn (UniProt P06241). The description is as above.
Chain of Fyn (P06241 whole entry, looked up): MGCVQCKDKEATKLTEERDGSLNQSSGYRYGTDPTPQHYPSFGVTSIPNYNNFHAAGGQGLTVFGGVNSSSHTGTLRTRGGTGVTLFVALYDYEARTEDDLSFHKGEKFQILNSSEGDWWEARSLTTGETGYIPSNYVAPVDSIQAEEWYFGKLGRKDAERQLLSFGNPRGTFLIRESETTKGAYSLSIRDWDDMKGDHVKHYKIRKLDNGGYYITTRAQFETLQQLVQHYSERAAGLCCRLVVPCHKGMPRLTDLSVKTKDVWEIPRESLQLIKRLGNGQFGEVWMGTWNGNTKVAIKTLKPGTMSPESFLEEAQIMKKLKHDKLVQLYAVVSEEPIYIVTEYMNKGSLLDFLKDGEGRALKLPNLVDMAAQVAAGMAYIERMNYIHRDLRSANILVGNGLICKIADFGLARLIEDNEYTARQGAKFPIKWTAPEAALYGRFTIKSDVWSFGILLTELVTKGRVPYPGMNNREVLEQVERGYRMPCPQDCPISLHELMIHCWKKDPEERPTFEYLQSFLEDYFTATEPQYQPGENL
Another data set has as its target Hck (UniProt P08631). Described as above.
Another data set concerns the target Jak2 (UniProt O60674). The data set is described as above.
In a further data set the target is MERTK (UniProt Q12866). The description is as above.
For another data set, the system named is c-Abl (mouse). Described as above.
In the next data set the test system is c-Src. The description is as above.
In a further data set the target is Grb2 SH2 (UniProt P62993). The experiment in a line: SH2 binding enrichment of the phosphorylated peptide, bacterial display (enrichment ratio); higher = better substrate or ligand; peptides without Tyr show the background.
Chain of Grb2 SH2 (P62993 whole entry, looked up): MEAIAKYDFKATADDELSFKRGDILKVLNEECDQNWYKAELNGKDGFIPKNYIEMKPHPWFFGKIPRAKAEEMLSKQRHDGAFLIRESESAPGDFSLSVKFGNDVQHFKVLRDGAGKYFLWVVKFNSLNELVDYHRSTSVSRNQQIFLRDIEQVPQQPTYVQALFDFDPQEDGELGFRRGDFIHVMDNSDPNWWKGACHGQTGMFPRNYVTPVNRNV
The target in the next data set is SHP2-C SH2. Described as above.
Another data set addresses c-Src SH2. The description is as above.
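Throughout, for SH2 binding enrichment of the phosphorylated peptide, bacterial display: peptide library displayed on the E. coli surface as eCPX fusions, selected cells deep-sequenced, score is each peptide's frequency after selection divided by its frequency in the input.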
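Throughout, for phosphorylation enrichment, bacterial display: 11-residue human phosphosite peptides and single-mutation variants displayed on the E. coli surface, counted by deep sequencing, each peptide's frequency after selection divided by its frequency in the unselected input library; frequency after pTyr selection over input frequency; kinase dosed for 20-30% of maximal phosphorylation in three min.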

Chain of EPHB2 (P29323 whole entry, looked up): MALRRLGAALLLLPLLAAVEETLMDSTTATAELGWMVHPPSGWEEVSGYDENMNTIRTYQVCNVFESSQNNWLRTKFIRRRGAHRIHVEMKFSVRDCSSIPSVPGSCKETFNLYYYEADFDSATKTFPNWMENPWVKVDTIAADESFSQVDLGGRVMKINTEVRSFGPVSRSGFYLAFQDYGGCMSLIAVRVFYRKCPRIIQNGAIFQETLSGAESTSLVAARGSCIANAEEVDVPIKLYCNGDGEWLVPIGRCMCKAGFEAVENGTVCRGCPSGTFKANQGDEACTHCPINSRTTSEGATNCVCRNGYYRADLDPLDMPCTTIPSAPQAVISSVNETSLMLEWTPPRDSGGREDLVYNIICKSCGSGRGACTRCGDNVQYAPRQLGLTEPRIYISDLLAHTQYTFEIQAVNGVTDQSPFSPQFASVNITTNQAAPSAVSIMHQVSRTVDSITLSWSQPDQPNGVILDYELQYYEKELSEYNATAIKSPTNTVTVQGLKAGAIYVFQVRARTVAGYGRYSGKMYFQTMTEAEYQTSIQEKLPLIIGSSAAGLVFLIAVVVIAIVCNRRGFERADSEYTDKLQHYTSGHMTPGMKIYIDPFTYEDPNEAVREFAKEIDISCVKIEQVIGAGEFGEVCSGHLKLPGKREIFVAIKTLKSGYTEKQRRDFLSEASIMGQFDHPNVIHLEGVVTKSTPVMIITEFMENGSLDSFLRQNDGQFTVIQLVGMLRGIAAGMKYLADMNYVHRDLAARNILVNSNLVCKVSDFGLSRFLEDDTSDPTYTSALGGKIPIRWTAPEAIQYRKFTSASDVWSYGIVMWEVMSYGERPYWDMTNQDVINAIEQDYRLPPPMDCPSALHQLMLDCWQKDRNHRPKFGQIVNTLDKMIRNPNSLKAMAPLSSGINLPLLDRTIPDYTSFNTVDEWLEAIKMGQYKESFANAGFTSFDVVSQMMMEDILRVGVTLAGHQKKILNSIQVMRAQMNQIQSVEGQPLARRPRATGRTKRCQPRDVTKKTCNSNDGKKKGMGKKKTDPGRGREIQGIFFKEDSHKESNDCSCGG
Chain of Hck (P08631 whole entry, looked up): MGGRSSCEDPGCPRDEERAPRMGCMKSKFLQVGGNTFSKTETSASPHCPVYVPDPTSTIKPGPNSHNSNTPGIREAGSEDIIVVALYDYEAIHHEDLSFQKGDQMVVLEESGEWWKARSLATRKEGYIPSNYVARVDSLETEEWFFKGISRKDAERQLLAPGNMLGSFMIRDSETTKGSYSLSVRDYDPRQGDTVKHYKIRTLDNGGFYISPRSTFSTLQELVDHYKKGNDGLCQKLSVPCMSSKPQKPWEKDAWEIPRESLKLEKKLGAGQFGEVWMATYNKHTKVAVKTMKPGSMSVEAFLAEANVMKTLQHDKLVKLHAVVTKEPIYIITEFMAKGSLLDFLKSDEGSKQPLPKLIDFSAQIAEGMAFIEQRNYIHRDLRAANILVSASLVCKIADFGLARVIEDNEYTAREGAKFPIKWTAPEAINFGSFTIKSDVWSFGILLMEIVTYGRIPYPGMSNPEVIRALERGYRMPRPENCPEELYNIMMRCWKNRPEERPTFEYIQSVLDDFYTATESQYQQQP
Chain of FGFR1 (P11362 whole entry, looked up): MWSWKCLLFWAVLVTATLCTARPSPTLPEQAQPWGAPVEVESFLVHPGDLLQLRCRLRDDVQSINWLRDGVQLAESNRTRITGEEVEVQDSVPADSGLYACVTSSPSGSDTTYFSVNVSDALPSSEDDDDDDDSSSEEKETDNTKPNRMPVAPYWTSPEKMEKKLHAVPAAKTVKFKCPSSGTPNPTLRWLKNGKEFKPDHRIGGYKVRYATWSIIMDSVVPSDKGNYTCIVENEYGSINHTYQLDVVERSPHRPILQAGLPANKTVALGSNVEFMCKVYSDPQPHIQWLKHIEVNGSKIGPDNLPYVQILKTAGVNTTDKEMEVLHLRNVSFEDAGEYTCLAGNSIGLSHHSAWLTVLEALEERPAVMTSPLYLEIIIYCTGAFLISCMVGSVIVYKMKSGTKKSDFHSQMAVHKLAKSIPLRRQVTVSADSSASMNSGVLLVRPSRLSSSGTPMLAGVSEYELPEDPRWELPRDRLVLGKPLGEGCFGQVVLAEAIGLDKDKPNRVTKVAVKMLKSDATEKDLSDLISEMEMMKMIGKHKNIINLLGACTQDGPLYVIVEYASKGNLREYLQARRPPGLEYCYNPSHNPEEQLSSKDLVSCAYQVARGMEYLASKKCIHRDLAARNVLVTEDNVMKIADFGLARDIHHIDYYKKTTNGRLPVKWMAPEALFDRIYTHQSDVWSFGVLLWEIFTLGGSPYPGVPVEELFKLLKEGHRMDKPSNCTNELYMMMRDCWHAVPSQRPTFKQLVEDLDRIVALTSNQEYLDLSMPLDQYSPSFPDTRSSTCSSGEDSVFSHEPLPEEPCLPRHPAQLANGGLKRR
Chain of EPHB1 (P54762 whole entry, looked up): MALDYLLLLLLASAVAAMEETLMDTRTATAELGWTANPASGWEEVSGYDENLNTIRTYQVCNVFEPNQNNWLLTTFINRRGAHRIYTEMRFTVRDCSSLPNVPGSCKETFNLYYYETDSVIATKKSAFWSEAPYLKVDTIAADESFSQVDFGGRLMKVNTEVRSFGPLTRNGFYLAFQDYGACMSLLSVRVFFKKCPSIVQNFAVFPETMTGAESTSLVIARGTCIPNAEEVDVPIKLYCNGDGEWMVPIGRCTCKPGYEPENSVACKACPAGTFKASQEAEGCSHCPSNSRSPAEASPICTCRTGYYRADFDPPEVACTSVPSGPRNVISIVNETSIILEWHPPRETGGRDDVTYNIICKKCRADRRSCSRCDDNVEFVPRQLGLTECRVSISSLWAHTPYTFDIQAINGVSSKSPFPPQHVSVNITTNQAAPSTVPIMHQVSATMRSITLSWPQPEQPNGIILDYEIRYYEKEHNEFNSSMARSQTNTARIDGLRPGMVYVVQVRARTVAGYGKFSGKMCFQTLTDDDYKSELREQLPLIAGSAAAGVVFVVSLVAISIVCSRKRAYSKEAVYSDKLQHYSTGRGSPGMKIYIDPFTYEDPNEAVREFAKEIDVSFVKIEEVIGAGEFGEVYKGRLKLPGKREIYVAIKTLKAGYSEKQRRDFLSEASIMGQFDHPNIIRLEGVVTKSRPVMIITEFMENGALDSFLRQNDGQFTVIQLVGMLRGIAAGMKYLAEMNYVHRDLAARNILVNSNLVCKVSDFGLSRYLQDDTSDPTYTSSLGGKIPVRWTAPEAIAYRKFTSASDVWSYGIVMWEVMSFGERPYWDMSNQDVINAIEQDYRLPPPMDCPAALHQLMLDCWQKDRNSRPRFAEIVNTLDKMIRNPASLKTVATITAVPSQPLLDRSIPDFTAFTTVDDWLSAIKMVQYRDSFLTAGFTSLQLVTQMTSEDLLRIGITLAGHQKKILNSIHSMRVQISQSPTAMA

With PDMHSYMVRYN [GRIN2D_Y732], the phosphorylation enrichment stood at 0.955 with AncSZ; 0.637 with EPHB1; 0.787 with EPHB2; 0.767 in the data set with FGFR1; 1.04 with FGFR3; 0.674 with Fer (mouse). Moreover, the phosphorylation enrichment was 1.09 in the data set with Fes; 0.64 in the data set with Fyn; 0.706 with Hck; 1.07 with Jak2; 0.616 with MERTK; 1.02 in the data set with c-Abl (mouse). Moreover, in the data set on c-Src, the phosphorylation enrichment is 0.782. The SH2 binding enrichment with Grb2 SH2 turned out to be 0.858; with SHP2-C SH2 it was 0.97; in the data set with c-Src SH2, 0.613.

As for PEADKYHLTYA [FGG_Y300_R301H], the phosphorylation enrichment in the data set with AncSZ was determined as 0.685; in the data set with EPHB1 it was 0.51; in the data set with EPHB2 it was 0.592; with FGFR1, 0.665; in the data set with FGFR3, 0.771; in the data set with Fer (mouse), 0.282. Further, the phosphorylation enrichment with Fes worked out at 0.985; in the data set with Fyn, 0.608; in the data set with Hck, 0.701; in the data set with Jak2, 0.908; with MERTK it was 0.742; in the data set on c-Abl (mouse), 1.15. Besides, the phosphorylation enrichment in the data set with c-Src came out at 0.915. Further, the SH2 binding enrichment with Grb2 SH2 stood at 0.561; in the data set with SHP2-C SH2 it was 0.704; with c-Src SH2, 0.655.

In the case of PEIIAYQPYGK [PRKCG_Y529], the phosphorylation enrichment was 0.852 with AncSZ; 0.585 with EPHB1; 0.665 with EPHB2; 0.823 in the data set with FGFR1; 0.723 in the data set with FGFR3; 0.537 in the data set on Fer (mouse). The phosphorylation enrichment with Fes came to 1.08; with Fyn it was 0.68; in the data set with Hck, 0.82; with Jak2 it was 1.31; with MERTK, 0.589; in the data set on c-Abl (mouse), 1.15. For the same sequence, the phosphorylation enrichment with c-Src worked out at 0.523. The SH2 binding enrichment in the data set with Grb2 SH2 is 0.747; in the data set with SHP2-C SH2, 0.676; with c-Src SH2 it was 0.622.

Take PEVCDYGLGGG [GSTO1_Y239_A236V]: the phosphorylation enrichment in the data set with AncSZ was determined as 1.6; in the data set with EPHB1, 0.575; with EPHB2, 0.812; with FGFR1, 0.689; in the data set with FGFR3, 0.803; in the data set with Fer (mouse), 0.807. Further, the phosphorylation enrichment with Fes is 1.07; with Fyn it was 0.965; with Hck, 0.765; with Jak2, 1.03; in the data set with MERTK, 0.837; in the data set on c-Abl (mouse) it was 0.726. The phosphorylation enrichment in the data set with c-Src stood at 0.611. The SH2 binding enrichment is 1.05 with Grb2 SH2, 1.16 in the data set with SHP2-C SH2 and 0.562 with c-Src SH2.

For PFSNSYENSLI [EPOR_Y489_P488S_YF], the phosphorylation enrichment came out at 1.4 with AncSZ; 1.15 in the data set with EPHB1; 0.498 with EPHB2; 0.577 in the data set with FGFR1; 1.51 with FGFR3; 0.809 with Fer (mouse). The phosphorylation enrichment with Fes was determined as 1.21; with Fyn, 0.727; in the data set with Hck, 0.78; in the data set with Jak2, 1.16; with MERTK, 0.402; in the data set with c-Abl (mouse) it was 0.877. Moreover, in the data set on c-Src, the phosphorylation enrichment is 0.862. The SH2 binding enrichment with Grb2 SH2 was found to be 29.8; with SHP2-C SH2, 1.13; with c-Src SH2, 5.68.

For the sequence PINLYYLMDLS [ITGB2_Y131_D128N], the phosphorylation enrichment with AncSZ was determined as 3.58; in the data set with EPHB1, 8.27; in the data set with EPHB2 it was 6.74; in the data set with FGFR1, 16.3; with FGFR3 it was 15.7; in the data set with Fer (mouse) it was 5.63. The phosphorylation enrichment was found to be 2.62 with Fes; 4.6 with Fyn; 4.27 with Hck; 6.89 with Jak2; 11.6 with MERTK; 1.44 in the data set with c-Abl (mouse). The phosphorylation enrichment with c-Src is 4.42. Further, the SH2 binding enrichment with Grb2 SH2 amounted to 1.22; with SHP2-C SH2 it was 1.16; with c-Src SH2 it was 0.624.

For PIYEGYALPHA [ACTA1_Y171], the phosphorylation enrichment in the data set with AncSZ came out at 2.11; with EPHB1 it was 27.2; with EPHB2, 35.7; in the data set with FGFR1, 1.01; with FGFR3 it was 0.995; in the data set with Fer (mouse), 26.2. The phosphorylation enrichment with Fes came out at 3.4; with Fyn, 19.8; with Hck, 17.3; with Jak2, 1.4; in the data set with MERTK, 18.1; with c-Abl (mouse) it was 31.3. Also, the phosphorylation enrichment in the data set on c-Src turned out to be 14.8. Moreover, the SH2 binding enrichment with Grb2 SH2 amounted to 0.72; in the data set with SHP2-C SH2, 0.617; with c-Src SH2, 2.12.

In the case of PKGWNYELPAT [PROM1_Y34_A31G], the phosphorylation enrichment in the data set with AncSZ amounted to 1; with EPHB1, 0.597; with EPHB2, 0.454; with FGFR1 it was 0.518; in the data set with FGFR3 it was 0.592; in the data set on Fer (mouse), 0.433. Further, the phosphorylation enrichment in the data set with Fes turned out to be 0.867; in the data set with Fyn, 0.531; in the data set with Hck, 0.516; with Jak2, 0.698; with MERTK, 0.45; with c-Abl (mouse), 0.696. The phosphorylation enrichment in the data set with c-Src was 0.383. In addition, the figures for the SH2 binding enrichment in the data set with Grb2 SH2, with SHP2-C SH2 and with c-Src SH2 were 1.14, 0.613 and 1.25, respectively.

As to PLDGEHFTLQI [TP53_Y327_Y327H], the phosphorylation enrichment in the data set on AncSZ stood at 1.62; in the data set with EPHB1, 0.577; with EPHB2 it was 0.632; with FGFR1, 0.587; in the data set with FGFR3, 0.885; in the data set with Fer (mouse), 0.646. In addition, the phosphorylation enrichment was 1.87 with Fes; 0.668 with Fyn; 0.786 with Hck; 1.43 with Jak2; 0.465 with MERTK; 1.19 in the data set with c-Abl (mouse). For the same sequence, the phosphorylation enrichment with c-Src worked out at 0.605. Further, the SH2 binding enrichment with Grb2 SH2 was 0.644; in the data set with SHP2-C SH2, 2.55; with c-Src SH2 it was 0.451.

For the origin of these results see the supplement of paper PMC10065799, “High-throughput profiling of sequence recognition by tyrosine kinases and SH2 domains using bacterial peptide display” (eLife, 2023).
